Consider 7 molecules from patent publication US20250002945, “NEW TALE PROTEIN SCAFFOLDS WITH IMPROVED ON-TARGET/OFF-TARGET ACTIVITY RATIOS” (CELLECTIS SA, published 2025).

Holding throughout (experiment): cell_activity; T cells, mostly above 70%
What all share (conditions): tags: SV40 NLS; FokI fusion

One series deals with T1, CISH (3) left V2 TALEN (synthetic, UniProt Q56830 SEQ:15-719).
T1 chain: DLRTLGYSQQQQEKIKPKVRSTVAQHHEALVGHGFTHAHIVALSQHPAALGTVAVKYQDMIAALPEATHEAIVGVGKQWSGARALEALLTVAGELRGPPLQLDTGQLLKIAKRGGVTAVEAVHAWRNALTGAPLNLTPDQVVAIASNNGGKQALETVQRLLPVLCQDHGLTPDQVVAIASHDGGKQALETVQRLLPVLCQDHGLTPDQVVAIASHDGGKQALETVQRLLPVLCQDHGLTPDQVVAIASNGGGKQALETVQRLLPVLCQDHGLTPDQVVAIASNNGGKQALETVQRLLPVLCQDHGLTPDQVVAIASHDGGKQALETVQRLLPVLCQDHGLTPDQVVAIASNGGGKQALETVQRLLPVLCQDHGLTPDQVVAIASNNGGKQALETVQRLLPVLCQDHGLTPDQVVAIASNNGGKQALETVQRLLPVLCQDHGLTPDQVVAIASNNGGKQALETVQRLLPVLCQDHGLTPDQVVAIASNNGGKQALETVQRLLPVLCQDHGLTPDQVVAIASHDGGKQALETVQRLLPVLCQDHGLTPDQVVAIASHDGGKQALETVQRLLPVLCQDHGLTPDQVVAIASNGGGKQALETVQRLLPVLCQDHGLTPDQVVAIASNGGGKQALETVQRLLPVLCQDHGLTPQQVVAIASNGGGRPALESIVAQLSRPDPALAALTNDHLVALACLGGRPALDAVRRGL

A further series has as its target T2, CISH (1) left V2 TALEN (synthetic, UniProt Q56830 SEQ:15-719).
T2 chain: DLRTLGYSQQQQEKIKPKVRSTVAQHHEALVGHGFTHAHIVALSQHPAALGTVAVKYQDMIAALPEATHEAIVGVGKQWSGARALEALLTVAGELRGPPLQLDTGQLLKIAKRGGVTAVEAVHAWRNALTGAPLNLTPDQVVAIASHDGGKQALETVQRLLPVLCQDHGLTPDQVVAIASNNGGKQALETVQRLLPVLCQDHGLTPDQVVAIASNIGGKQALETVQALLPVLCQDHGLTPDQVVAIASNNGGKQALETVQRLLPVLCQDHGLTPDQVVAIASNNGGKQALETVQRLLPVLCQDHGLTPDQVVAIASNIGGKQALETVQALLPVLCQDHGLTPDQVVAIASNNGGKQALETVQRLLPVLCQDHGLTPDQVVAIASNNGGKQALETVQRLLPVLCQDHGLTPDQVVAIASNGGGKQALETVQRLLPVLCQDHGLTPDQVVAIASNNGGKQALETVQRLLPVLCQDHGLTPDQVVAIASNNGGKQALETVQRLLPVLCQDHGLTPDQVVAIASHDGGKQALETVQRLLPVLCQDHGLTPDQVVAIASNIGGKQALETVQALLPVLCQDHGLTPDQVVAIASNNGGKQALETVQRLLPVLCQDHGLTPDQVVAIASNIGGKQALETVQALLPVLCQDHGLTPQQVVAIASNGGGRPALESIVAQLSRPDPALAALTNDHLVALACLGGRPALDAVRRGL

A further series deals with T3, CISH (2) right V2 TALEN (synthetic, UniProt Q56830 SEQ:15-719).
T3 chain: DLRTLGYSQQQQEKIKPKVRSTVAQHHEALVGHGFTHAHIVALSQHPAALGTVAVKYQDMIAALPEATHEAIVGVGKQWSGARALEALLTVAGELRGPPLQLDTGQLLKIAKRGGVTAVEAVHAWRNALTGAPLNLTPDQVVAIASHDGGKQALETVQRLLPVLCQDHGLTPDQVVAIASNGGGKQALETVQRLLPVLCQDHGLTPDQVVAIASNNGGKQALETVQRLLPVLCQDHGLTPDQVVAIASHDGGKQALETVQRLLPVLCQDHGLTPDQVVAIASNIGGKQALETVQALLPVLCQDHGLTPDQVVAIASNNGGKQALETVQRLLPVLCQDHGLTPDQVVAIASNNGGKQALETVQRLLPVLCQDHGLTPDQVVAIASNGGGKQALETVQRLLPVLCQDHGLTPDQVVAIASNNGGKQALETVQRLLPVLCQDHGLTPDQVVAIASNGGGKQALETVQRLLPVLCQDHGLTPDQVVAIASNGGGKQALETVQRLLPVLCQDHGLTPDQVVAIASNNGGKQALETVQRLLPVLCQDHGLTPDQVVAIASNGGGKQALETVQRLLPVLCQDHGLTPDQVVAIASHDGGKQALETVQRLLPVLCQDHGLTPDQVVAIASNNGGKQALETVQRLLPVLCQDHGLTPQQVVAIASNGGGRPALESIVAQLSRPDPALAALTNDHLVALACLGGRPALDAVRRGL

In another series the target is T4, CISH (1) right V2 TALEN (synthetic, UniProt Q56830 SEQ:15-719).
T4 chain: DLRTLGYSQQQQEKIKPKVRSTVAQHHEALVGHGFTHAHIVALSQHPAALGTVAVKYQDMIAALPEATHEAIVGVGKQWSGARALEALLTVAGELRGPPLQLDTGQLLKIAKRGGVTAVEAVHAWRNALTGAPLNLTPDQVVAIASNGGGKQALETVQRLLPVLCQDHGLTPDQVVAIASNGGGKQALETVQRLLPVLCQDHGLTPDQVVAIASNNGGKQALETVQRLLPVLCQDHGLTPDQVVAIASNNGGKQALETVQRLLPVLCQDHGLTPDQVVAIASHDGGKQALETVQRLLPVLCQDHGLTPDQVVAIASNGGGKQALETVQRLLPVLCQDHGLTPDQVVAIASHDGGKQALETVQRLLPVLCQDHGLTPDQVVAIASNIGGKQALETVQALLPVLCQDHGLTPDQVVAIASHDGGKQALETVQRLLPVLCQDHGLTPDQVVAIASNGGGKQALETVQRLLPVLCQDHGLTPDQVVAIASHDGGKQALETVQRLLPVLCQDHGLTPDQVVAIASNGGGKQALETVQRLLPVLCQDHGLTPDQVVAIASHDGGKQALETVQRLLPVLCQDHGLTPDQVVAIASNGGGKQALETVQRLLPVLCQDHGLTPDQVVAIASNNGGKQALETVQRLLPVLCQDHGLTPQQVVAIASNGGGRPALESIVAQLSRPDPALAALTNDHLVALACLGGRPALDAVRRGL

In another series the target is T5, TIGIT left V2 TALEN (synthetic, UniProt Q56830 SEQ:15-719).
T5 chain: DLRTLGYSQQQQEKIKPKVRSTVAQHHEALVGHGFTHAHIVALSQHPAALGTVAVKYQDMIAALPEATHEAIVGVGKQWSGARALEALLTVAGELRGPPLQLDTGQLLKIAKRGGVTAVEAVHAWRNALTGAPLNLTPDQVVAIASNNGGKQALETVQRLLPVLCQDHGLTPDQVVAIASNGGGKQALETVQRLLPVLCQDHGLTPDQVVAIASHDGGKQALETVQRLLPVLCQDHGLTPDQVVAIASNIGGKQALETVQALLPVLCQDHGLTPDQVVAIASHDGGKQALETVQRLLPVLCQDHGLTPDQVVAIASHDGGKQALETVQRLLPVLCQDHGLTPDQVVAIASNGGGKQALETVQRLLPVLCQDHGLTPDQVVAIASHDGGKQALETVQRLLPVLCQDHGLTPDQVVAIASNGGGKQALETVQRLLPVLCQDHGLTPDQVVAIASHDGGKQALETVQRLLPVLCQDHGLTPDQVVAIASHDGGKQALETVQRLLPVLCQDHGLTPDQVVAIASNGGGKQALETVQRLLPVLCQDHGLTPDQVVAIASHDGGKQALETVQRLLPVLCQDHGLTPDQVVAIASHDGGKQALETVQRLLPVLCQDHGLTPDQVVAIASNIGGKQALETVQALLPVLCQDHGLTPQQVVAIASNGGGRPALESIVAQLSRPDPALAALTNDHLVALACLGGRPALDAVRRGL

The target in another series is T6, TIGIT right V2 TALEN (synthetic, UniProt Q56830 SEQ:15-719).
T6 chain: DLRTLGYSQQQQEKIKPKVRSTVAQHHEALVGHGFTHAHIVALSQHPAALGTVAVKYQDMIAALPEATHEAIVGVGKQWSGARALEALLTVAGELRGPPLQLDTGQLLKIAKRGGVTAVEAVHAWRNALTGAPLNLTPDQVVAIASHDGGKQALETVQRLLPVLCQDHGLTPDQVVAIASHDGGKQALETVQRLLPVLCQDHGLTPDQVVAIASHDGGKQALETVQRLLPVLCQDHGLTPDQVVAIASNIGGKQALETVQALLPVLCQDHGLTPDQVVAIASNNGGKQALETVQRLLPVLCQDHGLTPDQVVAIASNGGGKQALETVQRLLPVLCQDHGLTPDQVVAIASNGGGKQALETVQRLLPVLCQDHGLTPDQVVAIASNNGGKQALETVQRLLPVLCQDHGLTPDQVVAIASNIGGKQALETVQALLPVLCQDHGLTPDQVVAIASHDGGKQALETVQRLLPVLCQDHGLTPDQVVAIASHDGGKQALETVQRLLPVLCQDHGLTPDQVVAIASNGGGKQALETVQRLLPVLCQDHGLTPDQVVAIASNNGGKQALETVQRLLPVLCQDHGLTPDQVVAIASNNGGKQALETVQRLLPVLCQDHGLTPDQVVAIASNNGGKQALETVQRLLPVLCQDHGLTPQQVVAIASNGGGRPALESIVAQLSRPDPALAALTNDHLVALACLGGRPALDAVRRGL

Another series addresses T7, CISH (2) left V2 TALEN (synthetic, UniProt Q56830 SEQ:15-719).
T7 chain: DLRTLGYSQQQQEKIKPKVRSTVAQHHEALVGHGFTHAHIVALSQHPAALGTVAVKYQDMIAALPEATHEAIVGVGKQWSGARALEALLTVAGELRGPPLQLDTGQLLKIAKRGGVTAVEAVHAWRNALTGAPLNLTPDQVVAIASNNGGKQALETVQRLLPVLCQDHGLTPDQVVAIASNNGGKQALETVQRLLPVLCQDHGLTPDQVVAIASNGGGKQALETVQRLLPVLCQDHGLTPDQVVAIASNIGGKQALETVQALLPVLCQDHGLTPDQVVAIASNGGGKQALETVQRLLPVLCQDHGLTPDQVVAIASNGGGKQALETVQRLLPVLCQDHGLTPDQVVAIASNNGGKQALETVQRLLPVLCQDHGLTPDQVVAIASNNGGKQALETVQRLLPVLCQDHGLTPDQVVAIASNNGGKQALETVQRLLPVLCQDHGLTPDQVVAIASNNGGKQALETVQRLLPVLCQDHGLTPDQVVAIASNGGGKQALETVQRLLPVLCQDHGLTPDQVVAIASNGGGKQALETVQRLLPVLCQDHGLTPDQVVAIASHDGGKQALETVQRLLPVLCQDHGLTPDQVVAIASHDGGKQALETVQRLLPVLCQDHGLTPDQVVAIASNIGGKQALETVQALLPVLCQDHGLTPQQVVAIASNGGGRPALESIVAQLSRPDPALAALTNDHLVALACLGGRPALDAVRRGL

B1: CISH (3) left half-site (dsDNA)
DNA 1: TGCCTGCTGGGGCCTTC
DNA 2: GAAGGCCCCAGCAGGCA
As for B1, the activity in the series with CISH (3) left V2 TALEN is over 50 % indels.

B2: CISH (1) left half-site (dsDNA)
DNA 1: TCGAGGAGGTGGCAGAG
DNA 2: CTCTGCCACCTCCTCGA
The molecule B2 registered an activity with CISH (1) left V2 TALEN of over 50 % indels.

B3: CISH (2) right half-site (dsDNA)
DNA 1: CCGACAACACCTGCAGA
DNA 2: TCTGCAGGTGTTGTCGG
Turning to B3, in the series with CISH (2) right V2 TALEN, the activity is over 50 % indels.

B4: CISH (1) right half-site (dsDNA)
DNA 1: ACAGAGAGTGAGCCAAA
DNA 2: TTTGGCTCACTCTCTGT
In the series with CISH (1) right V2 TALEN, B4 had an activity of over 50 % indels.

B5: TIGIT left half-site (dsDNA)
DNA 1: TGTCACCTCTCCTCCAC
DNA 2: GTGGAGGAGAGGTGACA
For B5, the activity with TIGIT left V2 TALEN was over 50 % indels.

B6: TIGIT right half-site (dsDNA)
DNA 1: ACCCAGGTCAACTGGGA
DNA 2: TCCCAGTTGACCTGGGT
As for B6, the activity in the series with TIGIT right V2 TALEN is over 50 % indels.

B7: CISH (2) left half-site (dsDNA)
DNA 1: TGGTATTGGGGTTCCAT
DNA 2: ATGGAACCCCAATACCA
B7 had an activity with CISH (2) left V2 TALEN of over 50 % indels.
